From the supplement of paper PMC7877785
± gives the uncertainty stated by the source.

Assay: self-splicing fitness, log relative to wild type (ln ratio); higher = more splicing; Tetrahymena group I intron in knt gene, E. coli kanamycin selection, DiMSum; sequences stand for … in CUCUCU…GGAGGGAAAAGUUAUCAGGCAUGCACCUGGUAGCUAGUCUUUAAACCAAUAGAUUGCAUCGGUUUAAAAGGCAAGACCGUCAAAUUGCGGGAAAGGGGUCAACAGCCGUUCAGUACCAAGUCUCAGGGGAAACUUUGAGAUGGCCUUGCAAAGGGUAUGGUAAUAAGCUGACGGACAUGGUCCUAACCACGCAGCCAAGUCCUAAGUCAACAGAUCUUCUGUUGAUAUGGAUGCAGUUCACAGACUAAAUGUCGGUCGGGGAAGAUGUAUUCUUCUCAUAAGAUAUAGUCGGACCUCUCCUUAAUGGGAGCUAGCGGAUGAAGUGAUGCAACACUGGAGCCGCUGGGAACUAAUUUGUAUGCGAAAGUAUAUUGAUUAGUUUUGGAGUACUCGUGGUCG
How it was run: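 Six replicate transformations of E. coli BL21(DE3) with a pET-22b(+) library were grown overnight at 37°C or 30°C. The library randomised all eight P1ex-region intron nucleotides, the intron lying in the knt kanamycin-resistance gene, and plates were LB agar with or without 25 μg/mL kanamycin plus 100 μg/mL carbenicillin, 50 μM IPTG and 0.2% rhamnose. Pooled colonies were amplicon-sequenced on an Illumina HiSeq 2500, and fitness is the DiMSum error-weighted combination of wild-type-normalised replicate fold changes, kanamycin versus none.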

| Sequence | self-splicing fitness (ln) (30 °C) | self-splicing fitness (ln) (37 °C) |
| --- | --- | --- |
| GCACAGCAAUAUUACGCCUC | -0.836 ± 0.065 | -0.337 ± 0.074 |
| GCACAGCAAUAUUACGCGAG | -2.41 ± 0.092 | -0.669 ± 0.084 |
| GCACAGCAAUAUUACGCUUA | -0.908 ± 0.065 | -0.871 ± 0.062 |
| GCACAGCAAUAUUACGGAUC | -0.505 ± 0.053 | -0.336 ± 0.061 |
| GCACAGCAAUAUUACGGCAU | -1.59 ± 0.095 | -0.16 ± 0.091 |
| GCACAGCAAUAUUACGGCGA | -1.16 ± 0.083 | -0.758 ± 0.095 |
| GCACAGCAAUAUUACGGCGG | -3.29 ± 0.19 | -2.78 ± 0.25 |
| GCACAGCAAUAUUACGGGAU | -1.01 ± 0.073 | -1.02 ± 0.087 |
| GCACAGCAAUAUUACGGGGG | -1.97 ± 0.088 | -0.472 ± 0.08 |
| GCACAGCAAUAUUACGUAAU | 0.164 ± 0.059 | -0.0143 ± 0.064 |
| GCACAGCAAUAUUACGUAGA | -0.215 ± 0.049 | 0.62 ± 0.066 |
| GCACAGCAAUAUUACGUCGC | -3.17 ± 0.13 | -1.67 ± 0.12 |
| GCACAGCAAUAUUACGUUAG | -2.6 ± 0.091 | -1.85 ± 0.11 |
| GCAGAGCAAUAUUACGAACC | -1.87 ± 0.32 | -1.24 ± 0.33 |
| GCAGAGCAAUAUUACGAAGA | -1.88 ± 0.36 | – |
| GCAGAGCAAUAUUACGACGC | -3.56 ± 0.3 | -1.69 ± 0.18 |
| GCAGAGCAAUAUUACGAGAC | -3.42 ± 0.21 | -2.03 ± 0.12 |
| GCAGAGCAAUAUUACGAGGG | -3.47 ± 0.22 | -2.2 ± 0.24 |
| GCAGAGCAAUAUUACGAUAA | -3.38 ± 0.41 | -2.72 ± 0.44 |
| GCAGAGCAAUAUUACGCACC | -2.11 ± 0.45 | -1.17 ± 0.48 |
| GCAGAGCAAUAUUACGCAUG | – | -2.3 ± 0.39 |
| GCAGAGCAAUAUUACGCCGC | -2.91 ± 0.38 | – |
| GCAGAGCAAUAUUACGCUGA | -2.11 ± 0.29 | -0.433 ± 0.19 |
| GCAGAGCAAUAUUACGGAUA | -1.48 ± 0.32 | -2.92 ± 0.4 |
| GCAGAGCAAUAUUACGGCCA | – | -2.11 ± 0.29 |
| GCAGAGCAAUAUUACGGCCU | – | -1.69 ± 0.28 |

| Sequence | self-splicing fitness (ln) (30 °C) | self-splicing fitness (ln) (37 °C) |
| --- | --- | --- |
| GCAGAGCAAUAUUACGGCGU | -0.715 ± 0.099 | -0.614 ± 0.11 |
| GCAGAGCAAUAUUACGGGAU | -3.53 ± 0.2 | -2.21 ± 0.19 |
| GCAGAGCAAUAUUACGGGCG | -3.2 ± 0.17 | -0.961 ± 0.14 |
| GCAGAGCAAUAUUACGGGGC | -3.05 ± 0.36 | – |
| GCAGAGCAAUAUUACGGUAU | -3.23 ± 0.15 | – |
| GCAGAGCAAUAUUACGUAAC | -2.84 ± 0.29 | 0.113 ± 0.22 |
| GCAGAGCAAUAUUACGUAGC | -3.31 ± 0.25 | -2.77 ± 0.22 |
| GCAGAGCAAUAUUACGUCAU | – | -1.4 ± 0.42 |
| GCAGAGCAAUAUUACGUGCA | -3.08 ± 0.29 | -2.21 ± 0.23 |
| GCAGAGCAAUAUUACGUUUA | -2.56 ± 0.3 | – |
| GCAUAGCAAUAUUACGAAUA | -2.07 ± 0.17 | -1.38 ± 0.19 |
| GCAUAGCAAUAUUACGACGC | -0.867 ± 0.13 | -0.196 ± 0.13 |
| GCAUAGCAAUAUUACGACUG | -1.68 ± 0.12 | -0.65 ± 0.16 |
| GCAUAGCAAUAUUACGAGAA | -2.57 ± 0.46 | -2.67 ± 0.41 |
| GCAUAGCAAUAUUACGAGCG | -1.3 ± 0.077 | -1.05 ± 0.085 |
| GCAUAGCAAUAUUACGAGGA | -2.47 ± 0.32 | -2.21 ± 0.22 |
| GCAUAGCAAUAUUACGAUAU | -1.9 ± 0.084 | 0.148 ± 0.09 |
| GCAUAGCAAUAUUACGAUUG | -2.38 ± 0.14 | -1.67 ± 0.15 |
| GCAUAGCAAUAUUACGCAGA | -2.62 ± 0.31 | -2.06 ± 0.17 |
| GCAUAGCAAUAUUACGCCUU | – | -1.42 ± 0.21 |
| GCAUAGCAAUAUUACGCGAA | -2.13 ± 0.1 | -1.62 ± 0.12 |
| GCAUAGCAAUAUUACGCGAU | -3.36 ± 0.16 | -1.93 ± 0.14 |
| GCAUAGCAAUAUUACGGCCG | -2.37 ± 0.36 | -0.909 ± 0.39 |
| GCAUAGCAAUAUUACGGGAC | -2.49 ± 0.17 | -0.217 ± 0.14 |
| GCAUAGCAAUAUUACGGGCG | -1.84 ± 0.12 | -1.09 ± 0.11 |
